The text below walks through data of the supplement of paper PMC10567573.

B1: SLC19A2 (parent)
chain: FASLRPSEPFLTPYLLGPDKNLTE
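Also: lentivirally expressed fusions sorted by FACS into six bins by GFP to DsRed ratio, PSI derived from sequencing read proportions per bin multiplied by bin number.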

The data set covers variants of B1. As to the kind of experiment: protein stability index of a GFP-peptide fusion (GPS, HEK-293T) (PSI 1-6); higher = more stable. The following applies: c terminus: a fixed tail appended.
In the case of FASLRPSELFLTPYLLGPDKNLTE [P9L], the protein stability index stood at 2.5.

As to FASLRPSERFLTPYLLGPDKNLTE [P9R], the protein stability index stood at 1.39.

Regarding FASLRPSEEFLTPYLLGPDKNLTE [P9E], the protein stability index came out at 1.82.

As for FASLRPSEMFLTPYLLGPDKNLTE [P9M], the protein stability index was found to be 2.37.

Turning to FASLRPSEPFLTPYLTGPDKNLTE [L16T], the protein stability index came out at 1.8.

With FASLRPSEPFLTPYLRGPDKNLTE [L16R], the protein stability index amounted to 2.44.

In the case of FASLRPSEPFLTPYLVGPDKNLTE [L16V], the protein stability index stood at 1.79.

In the case of FASLRPSEPFLTPYLNGPDKNLTE [L16N], the protein stability index was 2.12.

For the variant FASLRPSEPFLTPYLSGPDKNLTE [L16S], the protein stability index came to 2.56.

Consider FASLRPSEPFLTPYLDGPDKNLTE [L16D], for which the protein stability index was 2.65.

Consider FASLRPSEPFLCPYLLGPDKNLTE [T12C], for which the protein stability index was found to be 2.1.

As to FASLRPSEPFLWPYLLGPDKNLTE [T12W], the protein stability index turned out to be 2.17.

FASLRPSEPFLEPYLLGPDKNLTE [T12E]: the protein stability index came out at 3.47.

As for FASLRPSEPFLGPYLLGPDKNLTE [T12G], the protein stability index was 2.35.

Regarding FASLRPSEPFLKPYLLGPDKNLTE [T12K], the protein stability index was determined as 1.88.

FASLRPSEPFLLPYLLGPDKNLTE [T12L]: the protein stability index worked out at 1.67.

On to FASLRPSEPFLQPYLLGPDKNLTE [T12Q], for which the protein stability index turned out to be 2.3.

In the case of FASLRPSEPFLTPYQLGPDKNLTE [L15Q], the protein stability index came out at 1.76.

As for FASLRPSEPFLTPYRLGPDKNLTE [L15R], the protein stability index came to 1.68.

As to FASLRPSEPFLTPYFLGPDKNLTE [L15F], the protein stability index was determined as 1.67.

For the variant FASLRPSEPFLTPYHLGPDKNLTE [L15H], the protein stability index is 1.55.

For FASLRPSEPFLTPYELGPDKNLTE [L15E], the protein stability index was determined as 2.03.

For the variant GASLRPSEPFLTPYLLGPDKNLTE [F1G], the protein stability index stood at 4.22.

MASLRPSEPFLTPYLLGPDKNLTE [F1M]: the protein stability index came out at 3.65.

For the variant EASLRPSEPFLTPYLLGPDKNLTE [F1E], the protein stability index was 4.2.

Consider QASLRPSEPFLTPYLLGPDKNLTE [F1Q], for which the protein stability index worked out at 4.19.

For CASLRPSEPFLTPYLLGPDKNLTE [F1C], the protein stability index is 2.8.

Regarding NASLRPSEPFLTPYLLGPDKNLTE [F1N], the protein stability index came to 3.81.

Consider DASLRPSEPFLTPYLLGPDKNLTE [F1D], for which the protein stability index was 4.38.

In the case of IASLRPSEPFLTPYLLGPDKNLTE [F1I], the protein stability index turned out to be 3.47.

Consider TASLRPSEPFLTPYLLGPDKNLTE [F1T], for which the protein stability index was 3.44.

KASLRPSEPFLTPYLLGPDKNLTE [F1K]: the protein stability index was determined as 3.79.

As to FASLRPSEPFLTPYLLHPDKNLTE [G17H], the protein stability index came to 1.75.

FASLRPSEPFLTPYLLNPDKNLTE [G17N]: the protein stability index came to 2.06.

With FASLRPSEPFLTPYLLTPDKNLTE [G17T], the protein stability index came to 1.96.

Turning to FASLRPSEPFLTPYLLAPDKNLTE [G17A], the protein stability index came out at 1.81.

In the case of FASLRPSEPFLTPYLLDPDKNLTE [G17D], the protein stability index came to 1.59.

As for FASLRPSEPFLTPYLLRPDKNLTE [G17R], the protein stability index is 1.99.

Consider FASLRPSEPFLTPYLLSPDKNLTE [G17S], for which the protein stability index was 2.41.

FASLRPSEPFLTPYLLPPDKNLTE [G17P]: the protein stability index worked out at 2.62.

As to FASLRPSEPFLTPYLLFPDKNLTE [G17F], the protein stability index was found to be 2.15.

Turning to FASLRPSEPPLTPYLLGPDKNLTE [F10P], the protein stability index amounted to 3.15.

For FASLRPSEPSLTPYLLGPDKNLTE [F10S], the protein stability index amounted to 2.16.

Turning to FASLRPSEPWLTPYLLGPDKNLTE [F10W], the protein stability index is 2.88.

Turning to FASLRPSEPGLTPYLLGPDKNLTE [F10G], the protein stability index turned out to be 2.3.

As for FASLRPSEPMLTPYLLGPDKNLTE [F10M], the protein stability index amounted to 2.35.

In the case of FASLRPSEPDLTPYLLGPDKNLTE [F10D], the protein stability index was 3.28.

For the variant FASLRPSEPLLTPYLLGPDKNLTE [F10L], the protein stability index turned out to be 2.12.

As to FASLRPSEPQLTPYLLGPDKNLTE [F10Q], the protein stability index was found to be 2.44.

With FASLRPSEPVLTPYLLGPDKNLTE [F10V], the protein stability index was found to be 2.67.

Take FASLRPSEPFLTPYLLGPDWNLTE [K20W]: the protein stability index was determined as 2.04.

For the variant FASLRPSEPFLTPYLLGPDTNLTE [K20T], the protein stability index is 1.45.

With FASLRPSEPFLTPYLLGPDQNLTE [K20Q], the protein stability index is 2.05.

For the variant FASLRPSEPFLTPYLLGPDINLTE [K20I], the protein stability index was determined as 2.44.

In the case of FASLRPSEPFLTPYLLGPDENLTE [K20E], the protein stability index amounted to 1.94.

Turning to FASLRPSEPFLTPYLLGPDYNLTE [K20Y], the protein stability index came out at 1.28.

FASLRPSEPFLTPYLLGPDDNLTE [K20D]: the protein stability index was determined as 2.1.

In the case of FALLRPSEPFLTPYLLGPDKNLTE [S3L], the protein stability index amounted to 1.76.

As for FANLRPSEPFLTPYLLGPDKNLTE [S3N], the protein stability index amounted to 2.78.

As to FADLRPSEPFLTPYLLGPDKNLTE [S3D], the protein stability index is 3.05.

Consider FARLRPSEPFLTPYLLGPDKNLTE [S3R], for which the protein stability index stood at 1.71.

Consider FATLRPSEPFLTPYLLGPDKNLTE [S3T], for which the protein stability index amounted to 2.83.

As for FAVLRPSEPFLTPYLLGPDKNLTE [S3V], the protein stability index is 2.65.

Take FAILRPSEPFLTPYLLGPDKNLTE [S3I]: the protein stability index was determined as 1.69.

For the variant FAWLRPSEPFLTPYLLGPDKNLTE [S3W], the protein stability index was found to be 1.54.

For FAELRPSEPFLTPYLLGPDKNLTE [S3E], the protein stability index was determined as 1.45.

On to FAYLRPSEPFLTPYLLGPDKNLTE [S3Y], for which the protein stability index turned out to be 2.53.

With FASLRPSEPFLTIYLLGPDKNLTE [P13I], the protein stability index came to 2.91.

Regarding FASLRPSEPFLTSYLLGPDKNLTE [P13S], the protein stability index came to 1.99.

As for FASLRPSEPFLTLYLLGPDKNLTE [P13L], the protein stability index was determined as 2.14.

As for FASLRPSEPFLTEYLLGPDKNLTE [P13E], the protein stability index was 1.95.

For FASLRPSEPFLTFYLLGPDKNLTE [P13F], the protein stability index stood at 2.1.

Regarding FASLRPSEPFLTCYLLGPDKNLTE [P13C], the protein stability index stood at 1.84.

Consider FASLRPSEPFLTVYLLGPDKNLTE [P13V], for which the protein stability index came to 2.02.

For the variant FASLRPSEPFLTMYLLGPDKNLTE [P13M], the protein stability index stood at 1.46.

Turning to FASLRPSEPFLTGYLLGPDKNLTE [P13G], the protein stability index was found to be 1.59.

In the case of FASLRPSEPFLTNYLLGPDKNLTE [P13N], the protein stability index was found to be 1.86.

For the variant FASLRPSEPFCTPYLLGPDKNLTE [L11C], the protein stability index is 1.86.

FASLRPSEPFQTPYLLGPDKNLTE [L11Q]: the protein stability index is 2.09.

Take FASLRPSEPFNTPYLLGPDKNLTE [L11N]: the protein stability index was 1.78.

For the variant FASLRPSEPFTTPYLLGPDKNLTE [L11T], the protein stability index was 1.94.

Regarding FASLRPSEPFKTPYLLGPDKNLTE [L11K], the protein stability index was 2.03.

With FASLRPSEPFGTPYLLGPDKNLTE [L11G], the protein stability index worked out at 2.06.

Take FASLRPSEPFFTPYLLGPDKNLTE [L11F]: the protein stability index amounted to 2.63.

Regarding FASLRPSEPFMTPYLLGPDKNLTE [L11M], the protein stability index was determined as 2.18.

With FASLRPSEPFSTPYLLGPDKNLTE [L11S], the protein stability index amounted to 1.91.

As for FASGRPSEPFLTPYLLGPDKNLTE [L4G], the protein stability index was 2.93.

Turning to FASARPSEPFLTPYLLGPDKNLTE [L4A], the protein stability index was 1.89.

Regarding FASSRPSEPFLTPYLLGPDKNLTE [L4S], the protein stability index was 1.61.

As for FASYRPSEPFLTPYLLGPDKNLTE [L4Y], the protein stability index stood at 1.7.

FASERPSEPFLTPYLLGPDKNLTE [L4E]: the protein stability index turned out to be 2.65.

As for FASVRPSEPFLTPYLLGPDKNLTE [L4V], the protein stability index is 1.86.

As to FASHRPSEPFLTPYLLGPDKNLTE [L4H], the protein stability index stood at 1.69.

FASCRPSEPFLTPYLLGPDKNLTE [L4C]: the protein stability index is 1.61.
